Data published in the supplement of paper PMC7125110.
± gives the standard error. For some assays here: Variants at the floor of the assay were thinned out.

B1: glmS ribozyme (parent)
chain: AUAAAAGCGCCAGAACUACAGAAAUGUAGUUGACGAGGAGGAGGUUUAUCGAAUUUUCGGCGGAUGCCUCCAAA

How the values were obtained:
Conditions in all cases: with glucosamine-6-phosphate
glucosamine-6-phosphate [1] = variants of: B1; assay: kcat; higher = faster cleavage; RNA array
Method in brief: (§1)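 In situ transcription by E. coli RNA polymerase produced barcoded ribozyme variants on sequenced MiSeq chips, and a hybridised Cy3 probe tracked them at 37 °C. Glucosamine-6-phosphate was flowed in at 40 μM to 10 mM in HEPES/KCl/Mg(OAc)2 buffer. kcat and KM were taken from weighted Michaelis–Menten fits of kobs values from exponential decay fits.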

glucosamine-6-phosphate [2] = variants of: B1; assay: KM; higher = weaker cofactor use; RNA array
Method in brief: as §1

glucosamine-6-phosphate [3] = variants of: B1; assay: self-cleavage kobs at 160 uM GlcN6P; higher = faster cleavage; RNA array
Method in brief: as §1

glucosamine-6-phosphate [4] = variants of: B1; assay: self-cleavage kobs at 640 uM GlcN6P; higher = faster cleavage; RNA array
Method in brief: as §1

glucosamine-6-phosphate [5] = variants of: B1; assay: self-cleavage kobs at 2500 uM GlcN6P; higher = faster cleavage; RNA array
Method in brief: as §1

glucosamine-6-phosphate [6] = variants of: B1; assay: self-cleavage kobs at 10000 uM GlcN6P; higher = faster cleavage; RNA array
Method in brief: as §1

glucosamine-6-phosphate [7] = variants of: B1; assay: self-cleavage kobs at 40 uM GlcN6P; higher = faster cleavage; RNA array
Method in brief: as §1

| Variant | kcat (glucosamine-6-phosphate [1]) [s⁻¹] | KM (glucosamine-6-phosphate [2]) [µM] | self-cleavage kobs at 160 uM GlcN6P (glucosamine-6-phosphate [3]) [s⁻¹] | self-cleavage kobs at 640 uM GlcN6P (glucosamine-6-phosphate [4]) [s⁻¹] | self-cleavage kobs at 2500 uM GlcN6P (glucosamine-6-phosphate [5]) [s⁻¹] | self-cleavage kobs at 10000 uM GlcN6P (glucosamine-6-phosphate [6]) [s⁻¹] | self-cleavage kobs at 40 uM GlcN6P (glucosamine-6-phosphate [7]) [s⁻¹] |
| --- | --- | --- | --- | --- | --- | --- | --- |
| G40C U46G | 0.000983 ± 6.7e-05 | 2350 ± 280 | 7.1e-05 ± 3.3e-05 | 0.00021 ± 4.6e-05 | 0.000525 ± 0.00016 | 0.000789 ± 0.00015 | – |
| A53G U57G | 5.45e-05 ± 1.2e-06 | 1880 ± 180 | – | – | 3.07e-05 ± 1.4e-05 | 4.6e-05 ± 8.2e-06 | – |
| C16U G51A C61G | 1.5e-05 ± 3.9e-06 | – | – | – | – | – | – |
| A39G G41U | 0.0014 ± 8.3e-05 | 1410 ± 140 | 0.000143 ± 2.9e-05 | 0.000467 ± 8.1e-05 | 0.000965 ± 0.00021 | 0.00119 ± 0.00016 | 3.41e-05 ± 9.8e-06 |
| G35C G40U | < 1e-05 | – | – | < 1e-05 | < 1e-05 | < 1e-05 | < 1e-05 |
| A6C U69A | 2.1e-05 ± 3.8e-06 | – | – | – | – | – | – |
| C50A U65G | 2.65e-05 ± 9.7e-06 | – | – | – | – | – | – |
| A6U C61G | < 1e-05 | – | < 1e-05 | < 1e-05 | – | – | – |
| A14U G44U | 7.47e-05 ± 1.1e-05 | 3310 ± 1300 | – | – | 3.42e-05 ± 8.1e-06 | 5.55e-05 ± 8.3e-06 | < 1e-05 |
| G29C U47G | 0.000341 ± 9.9e-05 | – | – | 7.76e-05 ± 1.8e-05 | 0.000393 ± 8.4e-05 | 0.000269 ± 4.6e-05 | – |
| G62C C70G C71A | 3.99e-05 ± 1.8e-05 | – | – | 6.26e-05 ± 2.7e-05 | 5.21e-05 ± 2.2e-05 | – | – |
| C11G A14U C70A | 3.61e-05 ± 1.3e-05 | – | – | – | – | – | – |
| G29C C67A C71U | 0.0001 ± 1.5e-05 | – | – | 0.000116 ± 2.2e-05 | 7.49e-05 ± 1.9e-05 | 0.000106 ± 1.9e-05 | – |
| U47G U49A | 1.31e-05 ± 3.3e-06 | – | – | – | – | – | – |
| G63U C68G | 1.09e-05 ± 2.8e-06 | – | – | – | < 1e-05 | – | < 1e-05 |
| G29U A64C | 1.56e-05 ± 2.5e-06 | – | – | – | – | – | < 1e-05 |
| C16G G32C | 0.000124 ± 1.6e-05 | 4550 ± 1400 | – | – | 4.67e-05 ± 9.8e-06 | 8.49e-05 ± 1e-05 | – |
| A36U C67U | < 1e-05 | – | – | – | – | – | – |
| U47C U65G | 0.00435 ± 0.0005 | 3840 ± 610 | – | 0.000565 ± 0.00011 | 0.00189 ± 0.00047 | 0.00312 ± 0.0006 | 4.89e-05 ± 1.1e-05 |
| A12G G66U C67U | 8.1e-05 ± 2.4e-06 | 1610 ± 110 | – | – | 4.93e-05 ± 2.1e-05 | – | < 1e-05 |
| A12U A42G U56A C67U | 0.004 ± 0.00068 | 794 ± 200 | – | 0.00156 ± 0.00046 | – | 0.00431 ± 0.0015 | 0.000207 ± 5.3e-05 |
